In patent US20230090247A1, “MOLECULES TARGETING RAS PROTEIN” (AELIN THERAPEUTICS, priority 2020, published 2023):
Square brackets hold non-standard residues; d marks the D form. Peptide text beside a SMILES is read from it. Dap = NC[C@H](N)C(=O)O

Tests used:
[1] = tested on: SW620 xenograft of human KRAS G12V mutant colorectal cancer; test: In vivo SW620 xenograft model; design: species or system Female NCr nu/nu mice
Protocol: FIG. 12 illustrates that RAS-targeting pept-ins reduce tumor growth in a xenograft model of KRAS G12V mutant cancer. […] Pept-ins were dosed 3 times per week by intratumoral injection at either 20 or 200 μg once the tumors reached 100-150 mm^3. Model response was monitored by a positive control group receiving Irinotecan at 100 mg/kg, once per week for 3 weeks. Group sizes were N=6 for the non-treated group, N=5 for the vehicle groups and N=8 for the pept-in and positive control groups. Graphs show box plots of tumor volumes at day 22 after treatment started.
Female NCr nu/nu mice (8 to 12 weeks) were inoculated with 1×10^6 SW620 tumor cells in 50% Matrigel subcutaneously in the hind flank. The cell Injection Volume was 0.1 mL/mouse. When tumors reached an average size of 100-150 mm^3 a pair match was performed, and treatment started. Group sizes were N=6 for the non-treated group, N=5 for the vehicle groups and N=8 for the pept-in and positive control groups. Tumor growth was monitored by caliper measurement twice per week. Model response was monitored by Irinotecan dosed once per week at 100 mg/kg intraperitoneally for 3 weeks.
To assess whether the RAS-targeting pept-ins are able to attenuate growth of KRAS G12V-driven tumors in vivo, a subcutaneous xenograft model of human KRAS G12V colorectal cancer (SW620) was used. Once the tumors reached 100-150 mm^3 in size, pept-ins were administered directly into the tumor mass by intratumoral injection three times per week during two weeks at two different doses (20 μg and 200 μg).

[2] = tested on: NCI-H441 lung adenocarcinoma cells (suspension spheroid cultures); type: cell-based, human
KRAS G12V [3] = target: T1, KRAS G12V (human, UniProt P01116-2 1-188, limits assumed); test: cell-based or functional assay
KRAS G12V [4] = target: T1, KRAS G12V; test: cell-based or functional assay; remark: listed apart in the source
KRAS G12V [5] = target: T1, KRAS G12V; test: cell-based or functional assay; remark: listed apart in the source

Molecule | IC50 [2] [µM] | IC50 on cell viability, NCI-H441 suspension spheroids, CellTiter Glo 3D, 5 days (KRAS G12V [3]) [µM] | also measured
CC(=O)N[C@@H](CCCCN)C(=O)N[C@H](C(=O)N[C@H](C(=O)N[C@H](C(=O)NCC(=O)N[C@@H](C)C(=O)N[C@H](C(=O)NCC(=O)N[C@@H](CCCCN)C(=O)NCC(=O)N[C@@H](CO)C(=O)N[C@@H](CCCCN)C(=O)N[C@H](C(=O)N[C@H](C(=O)N[C@H](C(=O)NCC(=O)N[C@@H](C)C(=O)N[C@H](C(=O)NCC(=O)N[C@@H](CCCCN)C(N)=O)C(C)C)C(C)C)C(C)C)C(C)C)C(C)C)C(C)C)C(C)C)C(C)C [04-015-N001] |  |  | average tumor volume at day 22 after treatment started ([1]; 20 μg intratumoral injection three times per week): significant reduction; average tumor volume at day 22 after treatment started ([1]; 200 μg intratumoral injection three times per week): significant reduction; reduction in tumor growth (comparison between pept-ins) ([1]; intratumoral, 20 μg and 200 μg): strongest reduction in tumor growth
Ac-AVVVGAVAGSKVVVGAVK-NH2 [04-006-N082] | 18.2 |  | 
CC(=O)N[C@@H](CCCCN)C(=O)N[C@H](C(=O)N[C@H](C(=O)N[C@H](C(=O)NCC(=O)N[C@@H](C)C(=O)N[C@H](C(=O)N[C@@H](CCCCN)C(=O)NCC(=O)N[C@@H](CO)C(=O)N[C@@H](C)C(=O)N[C@H](C(=O)N[C@H](C(=O)N[C@H](C(=O)NCC(=O)N[C@@H](C)C(=O)N[C@H](C(=O)N[C@@H](CCCCN)C(N)=O)C(C)C)C(C)C)C(C)C)C(C)C)C(C)C)C(C)C)C(C)C)C(C)C [04-006-N053] | 21.6 |  | 
Ac-KLSVFAIKKLSVFAIK-NH2 [04-004-N016] | 45.9 |  | 
Ac-KLVVVGAVKGSKLVVVGAVK-NH2 [04-014-N001] |  |  | activity in the spheroid setting ([2]; 25 μM, 5 days of exposure): did not display activity
Ac-AVVVGAVKGSAVVVGAVK-NH2 [04-006-N060] | 31.7 |  | 
Ac-KVVVGAVGKFFKVVVGAVGK-NH2 [04-015-N064] | 48.9 |  | 
CC(=O)N[C@@H](CCCCN)C(=O)N[C@H](C(=O)N[C@H](C(=O)N[C@H](C(=O)NCC(=O)N[C@@H](C)C(=O)N[C@H](C(=O)NCC(=O)N[C@@H](CCCCN)C(=O)NCC(=O)N[C@@H](Cc1ccccc1)C(=O)N[C@@H](CCCCN)C(=O)N[C@H](C(=O)N[C@H](C(=O)N[C@H](C(=O)NCC(=O)N[C@@H](C)C(=O)N[C@H](C(=O)NCC(=O)N[C@@H](CCCCN)C(N)=O)C(C)C)C(C)C)C(C)C)C(C)C)C(C)C)C(C)C)C(C)C)C(C)C [04-015-N063] | 38.7 |  | 
Ac-KVVVGAVKASKVVVGAVK-NH2 [04-006-N051] | 10.4 |  | 
Ac-AVVVGAVKGSKVVVGAVK-NH2 [04-006-N044] | 5.3 |  | 
CC(=O)N[C@@H](CN)C(=O)N[C@H](C(=O)N[C@H](C(=O)N[C@H](C(=O)NCC(=O)N[C@@H](C)C(=O)N[C@H](C(=O)NCC(=O)N[C@H](C(=O)NCC(=O)N[C@@H](CCCCN)C(=O)NCC(=O)N[C@@H](CO)C(=O)N[C@@H](CCCCN)C(=O)N[C@@H](Cc1c[nH]c2ccccc12)C(=O)N[C@H](C(=O)NCC(=O)N[C@@H](C)C(=O)N[C@H](C(=O)NCC(=O)N[C@H](C(=O)NCC(=O)N[C@@H](CN)C(N)=O)C(C)C)C(C)C)C(C)C)C(C)C)C(C)C)C(C)C)C(C)C)C(C)C [04-033-N022] (Ac-[Dap]VVVGAVGVGKGSKWVGAVGVG[Dap]-NH2) | 5 |  | 
Ac-KVVVGAVGVGKKVVVGAVGVGK-NH2 [04-033-N007] | 13.1 |  | 
Ac-KVVVGAVAGSKVVVGAVK-NH2 [04-006-N050] | 5.7 |  | 
Ac-KVVVGAVKGAKVVVGAVK-NH2 [04-006-N052] | 30.6 |  | 
Ac-KVVVGAVKASKVVVGAVK-NH2 [pept-in 04-006-N051] |  | 10.4 | 
Ac-AVVVGAVKGSAVVVGAVK-NH2 [pept-in 04-006-N060] |  | 31.7 | 

Molecule | IC50 [2] [µM] | IC50 on cell viability, NCI-H441 suspension spheroids, CellTiter Glo 3D, 5 days (KRAS G12V [3]) [µM] | also measured
Ac-KLSVFAIKGSKLSVFAIK-NH2 [pept-in 04-004-N001] |  |  | IC50 on viability of adherent NCI-H441 cells, CellTiter Glo, 3 days (KRAS G12V [4]): ~10 µM; decrease in viability of NCI-H441 suspension spheroids, 25 µM, 5 days, CellTiter Glo 3D (KRAS G12V [4]): 75%; Normalised viability NCI-H441 4 days of exposure to 25 µM (%) (KRAS G12V [5]): 6.1%
Ac-KVVVGAVKGSAVVVGAVK-NH2 [pept-in 04-006-N053] |  | 21.6 | 
Ac-KVVVGAVKGSKVVVGAVK-NH2 [pept-in 04-006-N001] |  |  | IC50 on viability of adherent NCI-H441 cells, CellTiter Glo, 3 days (KRAS G12V [4]): ~10 µM; decrease in viability of NCI-H441 suspension spheroids, 25 µM, 5 days, CellTiter Glo 3D (KRAS G12V [4]): ≥ 75%; Normalised viability NCI-H441 4 days of exposure to 25 µM (%) (KRAS G12V [5]): 8.7%
Ac-AVVVGAVKGSKVVVGAVK-NH2 [pept-in 04-006-N044] |  | 5.3 | 
Ac-KVVVGAVKGAKVVVGAVK-NH2 [pept-in 04-006-N052] |  | 30.6 | 
Ac-KVVVGAVAGSKVVVGAVK-NH2 [pept-in 04-006-N050] |  | 5.7 | 
Ac-KLSVFAIKKLSVFAIK-NH2 [pept-in 04-004-N016] |  | 45.9 | 
Ac-KVVVGAVGVGKKVVVGAVGVGK-NH2 [pept-in 04-033-N007] |  | 13.1 | 
Ac-KVVVGAVGVGKGSKVVVGAVGVGK-NH2 [pept-in 04-033-N001] |  |  | IC50 on viability of adherent NCI-H441 cells, CellTiter Glo, 3 days (KRAS G12V [4]): ~10 µM; decrease in viability of NCI-H441 suspension spheroids, 25 µM, 5 days, CellTiter Glo 3D (KRAS G12V [4]): ≥ 75%; Normalised viability NCI-H441 4 days of exposure to 25 µM (%) (KRAS G12V [5]): 5.2%
Ac-KVVVGAVGKGFKVVVGAVGK-NH2 [pept-in 04-015-N063] |  | 38.7 | 
Ac-KVVVGAVGKFFKVVVGAVGK-NH2 [pept-in 04-015-N064] |  | 48.9 | 
Ac-AVVVGAVAGSKVVVGAVK-NH2 [pept-in 04-006-N082] |  | 18.2 | 
Ac-KLVVVGAVKGSKLVVVGAVK-NH2 [pept-in 04-014-N001] |  |  | IC50 on viability of adherent NCI-H441 cells, CellTiter Glo, 3 days (KRAS G12V [4]): ~10 µM; Normalised viability NCI-H441 4 days of exposure to 25 µM (%) (KRAS G12V [5]): 9.1%
Ac-KVVVGAVAGSKVVVGAVA-NH2 [pept-in 04-006-N066] |  | 25.3 | 
Ac-KVVVGAVKGSKVVVGAVA-NH2 [pept-in 04-006-N059] |  | 15.7 | 
Ac-KVVVGAVGKGSKVVVGAVGK-NH2 [pept-in 04-015-N001] |  |  | IC50 on viability of adherent NCI-H441 cells, CellTiter Glo, 3 days (KRAS G12V [4]): ~10 µM; decrease in viability of NCI-H441 suspension spheroids, 25 µM, 5 days, CellTiter Glo 3D (KRAS G12V [4]): ≥ 75%; Normalised viability NCI-H441 4 days of exposure to 25 µM (%) (KRAS G12V [5]): 23.3%
